Source: the Human Domainome abundance scans (Beltran et al. 2025)
± gives the uncertainty stated by the source.

B1: POU domain, class 2, transcription factor 2, residues 200 to 269; numbered along this chain, P09086 (parent)
chain: LEELEQFARTFKQRRIKLGFTQGDVGLAMGKLYGNDFSQTTISRFEALNLSFKNMCKLKPLLEKWLNDAE

Variants of: B1
Experiment: abundance fitness (aPCA) (normalised: wild type 0, dead -1); higher = more abundant; growth selection in yeast, the domain comes from the species named
Details: Homo sapiens

Point of comparison: S43W, abundance fitness -0.047 ± 0.045. Against it:
- S51C — lower, -0.172 ± 0.072
- S51E — within error, 0.025 ± 0.05
- S51D — within error, 0.06 ± 0.072
- S51A — within error, -0.117 ± 0.035
- E46R — lower, -0.993 ± 0.079
- E46W — lower, -1.02 ± 0.13
- E46H — lower, -0.944 ± 0.17
- E46N — lower, -0.973 ± 0.19
- E46Y — lower, -0.994 ± 0.29
- E46Q — lower, -1.08 ± 0.16
- E46A — lower, -0.765 ± 0.067
- E46C — lower, -1.06 ± 0.21
- E46G — lower, -0.942 ± 0.083
- E46S — lower, -1.05 ± 0.1
- E46F — lower, -0.996 ± 0.21
- E46K — lower, -0.431 ± 0.13
- E46D — lower, -0.942 ± 0.14
- E46V — lower, -0.79 ± 0.08
- E46T — lower, -0.87 ± 0.13
- E46I — lower, -0.956 ± 0.18
- E46L — lower, -0.904 ± 0.077
- E46P — lower, -0.885 ± 0.2
- T41Y — within error, -0.078 ± 0.13
- T41L — within error, -0.041 ± 0.038
- T41N — within error, -0.062 ± 0.092
- T41S — within error, -0.059 ± 0.058
- T41Q — within error, -0.061 ± 0.047
- T41R — lower, -0.179 ± 0.036
- T41V — within error, 0.024 ± 0.076
- T41M — within error, 0.04 ± 0.068
- T41W — within error, -0.014 ± 0.059
- N49I — within error, -0.037 ± 0.059
- N49H — within error, -0.018 ± 0.058
- N49D — within error, 0.049 ± 0.063
- N49P — lower, -0.671 ± 0.056
- N49A — within error, -0.026 ± 0.036
- N49C — within error, 0.012 ± 0.043
- N49Y — lower, -0.249 ± 0.096
- N49L — within error, -0.032 ± 0.034
- N49G — within error, -0.004 ± 0.033
- N49F — lower, -0.219 ± 0.065
- N49K — within error, -0.007 ± 0.047
- N49V — within error, -0.091 ± 0.032
- N49S — within error, -0.005 ± 0.027
- N49W — lower, -0.309 ± 0.044
- N49Q — within error, 0.053 ± 0.058
- N49R — within error, -0.052 ± 0.029
- N49E — higher, 0.07 ± 0.044
- A47Q — within error, 0.035 ± 0.058
- A47I — within error, -0.037 ± 0.11
- A47H — within error, -0.144 ± 0.08
- A47N — within error, -0.019 ± 0.085
- A47W — lower, -0.325 ± 0.053
- A47V — within error, -0.125 ± 0.041
- A47T — within error, 0.017 ± 0.05
- A47Y — lower, -0.26 ± 0.091
- A47M — within error, -0.036 ± 0.065
- A47F — lower, -0.173 ± 0.075
- A47D — higher, 0.158 ± 0.083
- A47E — higher, 0.082 ± 0.044
- A47G — within error, -0.002 ± 0.037
- A47R — within error, -0.085 ± 0.036
- A47P — lower, -0.641 ± 0.11
- A47L — within error, -0.032 ± 0.037
- A47S — higher, 0.053 ± 0.042
- A47K — within error, -0.054 ± 0.083
- R44Q — higher, 0.125 ± 0.069
- R44I — lower, -0.926 ± 0.36
- R44G — within error, 0.008 ± 0.029
- R44M — within error, -0.006 ± 0.049
- R44Y — within error, -0.033 ± 0.093
- R44V — lower, -0.523 ± 0.045
- R44E — higher, 0.088 ± 0.055
- R44C — within error, -0.057 ± 0.069
- R44F — lower, -0.22 ± 0.067
- R44K — within error, 0.033 ± 0.066
- R44L — within error, -0.025 ± 0.037
- R44W — lower, -0.251 ± 0.045
- R44N — lower, -0.482 ± 0.32
- R44A — within error, 0.04 ± 0.052
- R44D — within error, -0.06 ± 0.095
- R44S — within error, 0.065 ± 0.086
- R44P — lower, -0.936 ± 0.12
- R44H — within error, -0.168 ± 0.095
- S43K — within error, 0.062 ± 0.085
- S43H — within error, -0.034 ± 0.034
- S43F — lower, -0.227 ± 0.079
- S43C — within error, -0.149 ± 0.083
- S43A — within error, 0.005 ± 0.046
- S43D — within error, -0.049 ± 0.078
- S43Q — within error, 0.095 ± 0.11
- S43N — within error, -0.046 ± 0.1
- S43T — within error, -0.05 ± 0.046
- S43L — within error, -0.07 ± 0.036
- S43G — within error, 0 ± 0.034
- S43V — within error, -0.098 ± 0.036
- S43P — within error, -0.002 ± 0.046
- S43E — within error, -0.018 ± 0.05
- S43I — within error, -0.024 ± 0.093
- L48N — within error, -0.026 ± 0.076
- L48Y — lower, -0.329 ± 0.1
- L48P — lower, -0.472 ± 0.072
- L48S — within error, 0.028 ± 0.041
- L48E — within error, 0.014 ± 0.061
- L48V — within error, 0.018 ± 0.045
- L48C — within error, 0.049 ± 0.061
- L48A — higher, 0.053 ± 0.053
- L48H — within error, 0.023 ± 0.1
- L48K — within error, 0.07 ± 0.076
- L48F — within error, 0.056 ± 0.077
- L48Q — within error, -0.011 ± 0.06
- L48D — lower, -0.27 ± 0.092
- L48I — within error, -0.029 ± 0.09
- L48M — within error, -0.031 ± 0.089
- L48W — lower, -0.158 ± 0.04
- L50H — within error, -0.089 ± 0.056
- L50F — within error, -0.064 ± 0.065
- L50P — lower, -0.674 ± 0.066
- L50Y — lower, -0.174 ± 0.066
- L50S — lower, -0.155 ± 0.036
- L50G — within error, -0.116 ± 0.028
- L50R — lower, -0.625 ± 0.044
- L50V — within error, -0.036 ± 0.045
- L50D — within error, -0.089 ± 0.06
- L50N — lower, -0.53 ± 0.1
- L50I — within error, -0.039 ± 0.05
- L50K — lower, -0.658 ± 0.073
- L50M — within error, -0.049 ± 0.057
- L50A — within error, -0.103 ± 0.033
- L50E — within error, 0.008 ± 0.074
- L50C — within error, -0.078 ± 0.026
- L50W — lower, -0.183 ± 0.043
- L50T — within error, -0.054 ± 0.052
- F45A — lower, -0.78 ± 0.095
- F45C — lower, -0.752 ± 0.22
- F45Y — within error, -0.158 ± 0.079
- F45Q — lower, -0.977 ± 0.19
- F45G — lower, -1.05 ± 0.15
- F45I — lower, -0.546 ± 0.17
- F45D — lower, -0.916 ± 0.26
- F45W — lower, -0.205 ± 0.052
- F45K — lower, -0.906 ± 0.12
- F45V — lower, -0.371 ± 0.048
- F45H — lower, -1.04 ± 0.49
- F45T — lower, -0.989 ± 0.15
- F45M — within error, -0.109 ± 0.046
- F45E — lower, -1.09 ± 0.16
- F45R — lower, -0.965 ± 0.078
- I42F — lower, -0.375 ± 0.12
- I42L — within error, -0.073 ± 0.038
- I42R — lower, -1.11 ± 0.14
- I42T — lower, -0.552 ± 0.077
- I42D — lower, -0.857 ± 0.24
- I42V — within error, -0.033 ± 0.037
- I42M — within error, -0.122 ± 0.059
- I42W — lower, -0.818 ± 0.16
- I42P — lower, -0.857 ± 0.18
- I42E — lower, -0.758 ± 0.1
- I42Q — lower, -0.559 ± 0.11
- I42A — lower, -0.609 ± 0.086
- I42H — lower, -1.01 ± 0.32
- I42C — lower, -0.375 ± 0.16
- I42Y — lower, -0.511 ± 0.21
- I42K — lower, -0.979 ± 0.15
- I42G — lower, -1.02 ± 0.12
- I42S — lower, -0.685 ± 0.24
